Columns and labels:
[1] = molecular target: CD8 on CD8-positive cells (PBMCs in Example 1, Immuno-Trol cells in Example 3) (UniProt P01732); test: negative control; magnetic bead depletion of PBMCs, flow cytometry of the supernatant (28% before addition of beads)
[2] = molecular target: CD8 on CD8-positive cells (PBMCs in Example 1, Immuno-Trol cells in Example 3) (UniProt P01732); test: negative control; magnetic bead depletion of PBMCs, flow cytometry of the supernatant (72% before addition of beads)
[3] = molecular target: CD4 on CD4-positive cells (PBMCs) (UniProt P01730); test: negative control; magnetic bead depletion of PBMCs, flow cytometry of the supernatant (18% before addition of beads)
[4] = molecular target: CD4 on CD4-positive cells (PBMCs) (UniProt P01730); test: negative control; magnetic bead depletion of PBMCs, flow cytometry of the supernatant (82% before addition of beads)
[5] = molecular target: CD8 on CD8-positive cells (PBMCs in Example 1, Immuno-Trol cells in Example 3) (UniProt P01732); test: negative control; cells trapped by beads, released with DNase I, flow cytometry
[6] = molecular target: CD4 on CD4-positive cells (PBMCs) (UniProt P01730); test: as above
[7] = molecular target: CD8 on CD8-positive cells (PBMCs in Example 1, Immuno-Trol cells in Example 3) (UniProt P01732); test: negative control; magnetic bead depletion of Immuno-Trol cells, flow cytometry of the supernatant (41% before addition of beads)
[8] = molecular target: CD8 on CD8-positive cells (PBMCs in Example 1, Immuno-Trol cells in Example 3) (UniProt P01732); test: negative control; magnetic bead depletion of Immuno-Trol cells, flow cytometry of the supernatant (59% before addition of beads)

UniProt P01732, sequence (P01732 22-235): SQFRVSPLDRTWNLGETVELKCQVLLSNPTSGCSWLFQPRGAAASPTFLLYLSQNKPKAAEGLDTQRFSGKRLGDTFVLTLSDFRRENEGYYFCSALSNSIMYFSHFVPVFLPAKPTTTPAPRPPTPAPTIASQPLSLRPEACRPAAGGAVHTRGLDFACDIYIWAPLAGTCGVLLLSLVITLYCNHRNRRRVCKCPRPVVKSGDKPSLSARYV

Isotype Control antibody (Biolegend), modified with FITC-introduced synthetic oligo-DNA linker and immobilized on streptavidin magnetic beads
Ratio of CD3-positive and CD4-negative cells remaining in the supernatant [1]: 33% | Ratio of CD3-positive and CD4-positive cells remaining in the supernatant [2]: 67% | Ratio of CD3-positive and CD8-positive cells remaining in the supernatant [3]: 19% | Ratio of CD3-positive and CD8-negative cells remaining in the supernatant [4]: 81% | Ratio of FITC-positive cells [5]: 19% | Ratio of FITC-positive cells [6]: 26%

Control antibody (Biolegend), held on streptavidin magnetic beads through oligo-DNA-modified Protein A/G
Ratio of CD3-positive and CD4-negative cells remaining in the supernatant [7]: 39% | Ratio of CD3-positive and CD4-positive cells remaining in the supernatant [8]: 61%
